Results published in patent US20240366728A1 (CARMOT THERAPEUTICS, published 2024).

What was measured:
Assay in all cases: cell-based or functional assay
human GLP-1R [1] = molecular target: T1, human GLP-1R (human, UniProt P43220 24-463)
human GIPR [2] = molecular target: T2, human GIPR (human, UniProt P48546 22-466)
T2 sequence (looked up): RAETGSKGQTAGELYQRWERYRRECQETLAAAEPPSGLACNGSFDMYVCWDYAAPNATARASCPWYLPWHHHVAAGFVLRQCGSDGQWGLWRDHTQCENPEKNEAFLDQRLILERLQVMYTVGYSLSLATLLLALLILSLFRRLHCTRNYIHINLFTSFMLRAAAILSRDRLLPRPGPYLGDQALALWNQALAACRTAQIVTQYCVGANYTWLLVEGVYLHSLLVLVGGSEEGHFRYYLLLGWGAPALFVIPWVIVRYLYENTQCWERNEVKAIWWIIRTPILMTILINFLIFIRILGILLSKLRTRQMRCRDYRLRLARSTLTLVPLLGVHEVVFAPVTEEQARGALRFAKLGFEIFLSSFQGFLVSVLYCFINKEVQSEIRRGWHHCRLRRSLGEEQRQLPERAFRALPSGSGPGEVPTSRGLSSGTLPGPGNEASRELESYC

mouse GIPR = molecular target: T3, mouse GIPR (mouse, UniProt Q0P543 19-460)
T3 sequence (looked up): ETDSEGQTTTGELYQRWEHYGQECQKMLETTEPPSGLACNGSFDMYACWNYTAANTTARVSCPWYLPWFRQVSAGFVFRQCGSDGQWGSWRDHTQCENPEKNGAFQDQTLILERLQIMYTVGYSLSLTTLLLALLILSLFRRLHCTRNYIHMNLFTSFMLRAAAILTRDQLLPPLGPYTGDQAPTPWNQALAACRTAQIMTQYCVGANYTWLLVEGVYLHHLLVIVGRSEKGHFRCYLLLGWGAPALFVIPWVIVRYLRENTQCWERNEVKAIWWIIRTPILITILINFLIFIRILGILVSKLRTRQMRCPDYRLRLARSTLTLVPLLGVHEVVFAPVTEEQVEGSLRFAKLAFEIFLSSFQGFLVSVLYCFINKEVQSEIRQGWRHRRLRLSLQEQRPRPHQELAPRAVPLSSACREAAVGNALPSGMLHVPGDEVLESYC

human GLP-1R [3] = molecular target: T1, human GLP-1R; remark: listed apart in the source
human GIPR [4] = molecular target: T2, human GIPR; remark: listed apart in the source
mouse GLP-1R = molecular target: T4, mouse GLP-1R (mouse, UniProt O35659 22-463)
T4 sequence (looked up): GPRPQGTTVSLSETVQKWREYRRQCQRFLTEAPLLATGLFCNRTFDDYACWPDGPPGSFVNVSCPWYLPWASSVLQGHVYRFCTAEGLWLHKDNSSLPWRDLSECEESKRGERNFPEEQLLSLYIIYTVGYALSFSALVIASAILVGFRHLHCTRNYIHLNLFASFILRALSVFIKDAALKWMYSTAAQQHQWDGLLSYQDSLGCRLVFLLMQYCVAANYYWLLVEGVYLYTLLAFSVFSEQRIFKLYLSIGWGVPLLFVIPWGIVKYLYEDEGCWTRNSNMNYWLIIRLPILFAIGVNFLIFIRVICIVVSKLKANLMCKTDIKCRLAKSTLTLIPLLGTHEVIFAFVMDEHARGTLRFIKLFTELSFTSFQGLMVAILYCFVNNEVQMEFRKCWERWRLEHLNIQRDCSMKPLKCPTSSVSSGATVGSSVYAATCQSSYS

B1: CT-868 (peptide)
peptide: EGTFTSDYSIYLDKQAAXEFVNWLLAGGPSSGAPPPSK
modifications: N-terminal 2-(2-Piperidon-1-yl)-ethylcarbamoylmethylthio-acetyl on Glu; Aib (18th residue of the printed chain); C-terminal Lys(γ-Glu-palmitoyl)-NH2; hydrochloride salt
- fold less potent than GLP-1 (cAMP accumulation) (human GLP-1R [1]): 6 fold
- fold less potent than GIP (cAMP accumulation) (human GIPR [2]): 16 fold
- ratio GLP-1R over GIPR (cAMP potency) (human GIPR [2]): ~19.4
- mGIPR cAMP (-alb) EC50 (mouse GIPR): 1.03 nM
- mGIPR β-arrestin-2 EC50 (mouse GIPR): 6.21 nM
- mGIPR/mGLP-1R cAMP ratio (mouse GIPR): 6
- hGLP-1R Internalization EC50 (human GLP-1R [3]): 3.1 nM
- hGLP-1R cAMP (-alb) EC50 (human GLP-1R [3]): 0.156 nM
- hGLP-1R β-arrestin-2 EC50 (human GLP-1R [3]): 11 nM
- hGIPR Internalization EC50 (human GIPR [4]): 14 nM
- hGIPR cAMP (-alb) EC50 (human GIPR [4]): 1.9 nM
- hGIPR β-arrestin-2 EC50 (human GIPR [4]): 13 nM
- hGIPR/hGLP-1R cAMP ratio (human GIPR [4]): 12
- mGLP-1R cAMP (-alb) EC50 (mouse GLP-1R): 0.164 nM
- mGLP-1R β-arrestin-2 EC50 (mouse GLP-1R): 21.1 nM
